Experiment [1] deals with T1, human Fc receptor protein FcRn (human, UniProt P55899 24-297; P61769 21-119, biotinylated).
T1 construct: Biotinylated protein captured on SA sensors
The experiment can be described thus: BLI (ForteBio), biotinylated receptor on SA sensor, antibody from 5,000 nM, 1:1 global fit. The text has this:
The dynamic affinity of the antibodies 101A6HZ, 101A6HZm and Hu24 with human Fc receptor proteins CD16a, CD32a, CD32b, CD64 and FcRn was detected through ForteBio (Pall life sciences).

Experiment [2] concerns the target T2, mouse PTK7 protein (extracellular sequence of mouse PTK7 with C-terminal 6×His tag) (mouse, UniProt Q8BKG3 23-696).
T2 construct: extracellular domain; Expressed transiently in HEK293 cells
T2 sequence: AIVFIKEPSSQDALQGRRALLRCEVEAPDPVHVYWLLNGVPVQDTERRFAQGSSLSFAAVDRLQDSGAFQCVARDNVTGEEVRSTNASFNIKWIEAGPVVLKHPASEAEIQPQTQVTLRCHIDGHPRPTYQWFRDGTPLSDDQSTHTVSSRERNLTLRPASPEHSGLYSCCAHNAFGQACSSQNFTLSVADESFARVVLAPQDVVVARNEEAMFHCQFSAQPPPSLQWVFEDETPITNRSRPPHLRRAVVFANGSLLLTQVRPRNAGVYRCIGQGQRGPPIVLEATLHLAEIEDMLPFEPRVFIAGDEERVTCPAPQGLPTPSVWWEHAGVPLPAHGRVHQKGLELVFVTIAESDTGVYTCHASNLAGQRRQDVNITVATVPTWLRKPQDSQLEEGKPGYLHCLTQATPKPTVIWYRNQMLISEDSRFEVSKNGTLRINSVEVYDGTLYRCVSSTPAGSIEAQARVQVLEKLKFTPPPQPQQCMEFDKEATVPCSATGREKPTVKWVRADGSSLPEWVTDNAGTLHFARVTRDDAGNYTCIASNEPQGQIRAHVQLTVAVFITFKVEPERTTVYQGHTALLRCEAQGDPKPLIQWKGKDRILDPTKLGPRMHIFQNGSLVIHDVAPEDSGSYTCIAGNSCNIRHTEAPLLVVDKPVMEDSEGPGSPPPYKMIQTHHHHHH
The experiment can be described thus: ELISA, coated mouse PTK7 protein. The method, then:
Original data was imported into software for nonlinear curve fitting, and EC₅₀ of binding of each antibody to human PTK7 and monkey PTK7 was calculated, respectively. As shown in Table 1 and FIGS. 1A-1B, the screened antibodies could be bound to the human and monkey PTK7 proteins with affinity higher than that of the control antibody Hu24.
ELISA and ForteBio were adopted to detect binding of the anti-human PTK7 chimeric and humanized antibodies to the monkey, mouse and rat PTK7 proteins.
(ELISA stands for enzyme-linked immunosorbent assay.)

For experiment [3], the target named is T3, human PTK7 on cells (tumor cells endogenously expressing PTK7); CHO-hPTK7, CHO-S-hPTK7 and 293T-hPTK7 … (human, UniProt Q13308 31-1070).
T3 sequence (looked up): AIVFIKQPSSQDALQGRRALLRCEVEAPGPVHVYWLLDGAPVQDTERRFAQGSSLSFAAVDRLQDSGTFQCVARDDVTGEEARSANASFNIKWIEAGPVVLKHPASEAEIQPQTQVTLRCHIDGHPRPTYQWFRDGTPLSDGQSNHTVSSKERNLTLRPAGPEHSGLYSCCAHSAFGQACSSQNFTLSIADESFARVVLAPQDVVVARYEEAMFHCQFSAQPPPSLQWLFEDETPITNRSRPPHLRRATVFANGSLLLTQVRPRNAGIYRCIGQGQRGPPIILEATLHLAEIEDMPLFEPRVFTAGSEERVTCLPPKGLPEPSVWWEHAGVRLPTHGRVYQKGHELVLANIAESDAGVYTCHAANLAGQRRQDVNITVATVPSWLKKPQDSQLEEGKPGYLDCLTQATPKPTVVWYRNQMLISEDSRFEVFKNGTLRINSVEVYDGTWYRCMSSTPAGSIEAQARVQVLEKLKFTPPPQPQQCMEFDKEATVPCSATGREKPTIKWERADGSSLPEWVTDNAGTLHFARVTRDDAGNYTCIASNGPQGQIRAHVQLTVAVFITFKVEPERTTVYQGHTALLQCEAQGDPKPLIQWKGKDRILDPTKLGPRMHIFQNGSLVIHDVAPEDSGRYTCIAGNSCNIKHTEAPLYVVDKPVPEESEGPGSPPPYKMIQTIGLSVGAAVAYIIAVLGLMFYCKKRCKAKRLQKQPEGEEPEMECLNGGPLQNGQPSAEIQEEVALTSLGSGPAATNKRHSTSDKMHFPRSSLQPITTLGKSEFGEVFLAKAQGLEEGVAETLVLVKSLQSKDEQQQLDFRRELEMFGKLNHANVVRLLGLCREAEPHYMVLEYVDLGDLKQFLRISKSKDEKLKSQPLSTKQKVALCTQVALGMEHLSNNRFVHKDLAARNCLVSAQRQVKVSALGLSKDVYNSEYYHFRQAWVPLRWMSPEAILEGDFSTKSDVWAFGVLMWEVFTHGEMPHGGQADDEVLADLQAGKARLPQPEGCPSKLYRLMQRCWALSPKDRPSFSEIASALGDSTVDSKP
In words: cell-based or functional assay.

The results in this text go back to patent publication US20260250420A1 (SICHUAN KELUN BIOTECH BIOPHARMACEUTICAL, published 2026).

T1 sequence (P55899 24-297 limits assumed, form in doubt, chain 1 of 2): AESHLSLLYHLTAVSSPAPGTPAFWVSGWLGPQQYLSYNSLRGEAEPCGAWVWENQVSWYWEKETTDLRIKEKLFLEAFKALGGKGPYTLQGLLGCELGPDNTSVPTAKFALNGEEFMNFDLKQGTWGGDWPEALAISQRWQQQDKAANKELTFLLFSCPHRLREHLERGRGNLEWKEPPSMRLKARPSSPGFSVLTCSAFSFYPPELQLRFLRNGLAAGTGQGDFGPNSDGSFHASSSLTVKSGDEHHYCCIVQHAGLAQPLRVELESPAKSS
T1 sequence (P61769 21-119 limits assumed, form in doubt, chain 2 of 2): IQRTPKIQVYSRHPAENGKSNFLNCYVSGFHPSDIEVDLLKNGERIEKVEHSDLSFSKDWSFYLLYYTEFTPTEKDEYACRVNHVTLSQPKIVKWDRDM

B1: 101A6HZ (anti-human PTK7 humanized antibody) (antibody, human IgG1, kappa)
heavy: not shown
light: DIVMTQSPDSLAVSLGERATINCKASQDVGSAVIWYQQKPGQSPKLLIYWASTRHTGVPDRFSGSGSGTDFTLTISSLQAEDVAVYYCQQYSSYPLTFGQGTKLEIKRTVAAPSVFIFPPSDEQLKSGTASVVCLLNNFYPREAKVQWKVDNALQSGNSQESVTEQDSKDSTYSLSSTLTLSKADYEKHKVYACEVTHQGLSSPVTKSFNRGEC
In experiment [1], B1 showed a dissociation constant Kd of 11.8 nM.

B2: 64A10HZ (anti-human PTK7 humanized antibody) (antibody, human IgG1, kappa, V domains shown)
VH: QVQLQESGPGLVKPSETLSLTCTVSGFSLTSYGVYWVRQPPGKGPEWLGVIWTSGNTNYNPSLKSRLTISKDNSKNQVSLKLSSVTAADTAVYYCVKHDGGNYVGVMNYWGQGTLVTVSS
VL: EIVMTQSPDFQSVTPKEKVTITCRASQSISDYLHWYQQKPDQSPKLLIKYASQSISGVPSRFSGSGSGSDFTLTINSLEAEDAATYYCQNGHSFPPTFGQGTKLEIKR
notes: Human IgG1 heavy chain constant region and human Kappa light chain constant region; expressed in CHO-S cells
In the case of B2, in experiment [2], the binding result was “no binding”.

B3: Hu24 (PTK7 control antibody, taken from Hu24 in the Patent CN201580030255) (antibody)
chain 1: QVQLVQSGPEVKKPGASVKVSCKASGYTFTDYAVHWVRQAPGKRLEWIGVISTYNDYTYNNQDFKGRVTMTRDTSASTAYMELSRLRSEDTAVYYCARGNSYFYALDYWGQGTSVTVSS
chain 2: EIVLTQSPATLSLSPGERATLSCRASESVDSYGKSFMHWYQQKPGQAPRLLIYRASNLESGIPARFSGSGSGTDFTLTISSLEPEDFAVYYCQQSNEDPWTFGGGTKLEIK
Take B3: in experiment [3], the “Cell endocytosis, EC50, A431 cells” value came to 0.0743 µg/mL; the “Cell endocytosis, EC50, HCC1806 cells” value came out at 0.0659 µg/mL; the “Cell endocytosis, EC50, NCI-H358 cells” value is 0.0708 µg/mL; the “Cell endocytosis, EC50, OVCAR3 cells” value was 0.101 µg/mL.

Broadly, the Kd is the concentration at which binding is half-saturated.
